The values below come from article PMC5286830, “Prokaryotic ubiquitin-like protein remains intrinsically disordered when covalently attached to proteasomal target proteins” (BMC Structural Biology, 2017).

This experiment concerns the target MtbDop-F (Mycobacterium tuberculosis deamidase of Pup / depupylase, randomly fluorescein-labeled) (Mycobacterium tuberculosis) (UniProt P9WNU9). Description: MST; Monolith NT.115, starting temperature 19 C; 30 nM MtbDop-F with serial 1:1 dilutions of MtbPup or MtbPup ~ FabD-3KR from 25 uM to 15 nM; 50 mM HEPES-NaOH pH 7.5, 150 mM NaCl, 1 mM MgCl2, 10% glycerol, 0.01% Tween-20; T-jump analysis, fit assuming 1:1 binding.

Broadly, the Kd is the free concentration of one partner at which half of the binding sites on the other are occupied at equilibrium, for simple one-to-one binding. The substance “MtbPup (prokaryotic ubiquitin-like protein from Mycobacterium tuberculosis, free) (from UniProt P9WHN5 1-64) (natural protein)” returned a Kd of 14.6 nM.
